According to ChEMBL document CHEMBL2073795, “Secretory mechanisms of grepafloxacin and levofloxacin in the human intestinal cell line caco-2” (J Pharmacol Exp Ther, 2000):

Test system: Cc1c(F)c(N2CCNC(C)C2)cc2c1c(=O)c(C(=O)O)cn2C1CC1
Assay: TP_TRANSPORTER: transepithelial transport (basal to apical) in Caco-2 cells
Type: functional, cell-based

ATP-dependent translocase ABCB1 (Homo sapiens)
Km: 580 µM
